Reference: paper PMC11546159

Molecular target: HLA-A*02:01 on the surface of T2 cells
Experiment: FACS, anti-HLA antibody staining of peptide-pulsed T2 cells (% HLA-A*02+)
Settings: peptide 50 μM
[1] = parent: est. 77, read off a plot

In the case of HPV16 E6 29-38 peptide C9A, the response (parent: 79) is reported as 60% and the response [1] is reported as 58%.
Substance HPV16 E6 29-38 peptide H3A has a response (parent: 79) of 84% and a response [1] of 81%.
HPV16 E6 29-38 peptide I2A gave a response (parent: 79) of 2%.
HPV16 E6 29-38 peptide D4A showed a response (parent: 79) of 1.9%.
For HPV16 E6 29-38 peptide I5A, the response (parent: 79) was 33% and the response [1] was 34%.
In the case of HPV16 E6 29-38 peptide L7A, the response (parent: 79) is reported as 2.4%.
HPV16 E6 29-38 peptide E8A was tested, and the response (parent: 79) was 74% and the response [1] was 76%.
With HPV16 E6 29-38 peptide I6A the response (parent: 79) was 71% and the response [1] was 69%.
In the case of HPV16 E6 29-38 peptide V10A, the response (parent: 79) is reported as 2%.
For HPV16 E6 29-38 peptide T1A, the response (parent: 79) was 79% and the response [1] was 79%.
